Test results as given in the Immune Epitope Database (IEDB).

How the values were obtained:
[1] = target: HLA-B*15:01; assay: IEDB peptide-MHC binding, purified MHC/direct/fluorescence; filed as Kd, often an IC50 or EC50 that approximates it; ≥ and ≤ were set here for values at or beyond the usual limits of such assays
[2] = target: HLA-B*58:01; assay: as above
[3] = target: HLA-B*07:02; assay: as above
[4] = target: HLA-A*03:01; assay: as above
[5] = target: HLA-A*02:01; assay: as above
[6] = target: HLA-B*18:01; assay: as above
[7] = target: HLA-A*24:02; assay: as above
[8] = target: HLA-B*46:01; assay: as above
[9] = target: HLA-B*08:01; assay: as above
[10] = target: HLA-B*08:02; assay: as above
[11] = target: HLA-B*40:01; assay: as above
[12] = target: HLA-A*69:01; assay: as above
[13] = target: HLA-B*44:02; assay: as above
[14] = target: HLA-B*27:05; assay: as above
[15] = target: HLA-A*26:01; assay: as above
[16] = target: HLA-A*01:01; assay: as above
[17] = target: HLA-A*11:01; assay: as above
[18] = target: HLA-A*26:02; assay: as above
[19] = target: HLA-B*48:01; assay: as above; settings: source organism: Influenza A virus (A/chicken/Hubei/wm/1997(H5N1))
[20] = target: HLA-B*57:01; assay: as above; settings: source organism: Influenza A virus (A/chicken/Hubei/wm/1997(H5N1))
[21] = target: HLA-A*31:01; assay: as above
[22] = target: HLA-B*15:17; assay: as above; settings: source organism: Influenza A virus (A/chicken/Hubei/wm/1997(H5N1))
[23] = target: HLA-A*30:01; assay: IEDB peptide-MHC binding, purified MHC/competitive/fluorescence; filed as Kd, often an IC50 or EC50 that approximates it; ≥ and ≤ were set here for values at or beyond the usual limits of such assays; settings: source organism: Influenza A virus (A/X-31(H3N2))
[24] = target: HLA-A*02:01; assay: IEDB peptide-MHC binding, purified MHC/competitive/fluorescence; ≥ and ≤ were set here for values at or beyond the usual limits of such assays
[25] = target: HLA-A*01:01; assay: as above
[26] = target: HLA-A*11:01; assay: as above
[27] = target: HLA-A*02:03; assay: IEDB peptide-MHC binding, purified MHC/competitive/radioactivity; filed as Kd, often an IC50 or EC50 that approximates it; ≥ and ≤ were set here for values at or beyond the usual limits of such assays; settings: source organism: Trypanosoma cruzi
[28] = target: HLA-A*02:02; assay: as above; settings: source organism: Trypanosoma cruzi
[29] = target: HLA-A*68:02; assay: as above; settings: source organism: Trypanosoma cruzi
[30] = target: HLA-A*02:06; assay: as above; settings: source organism: Trypanosoma cruzi
[31] = target: HLA-A*02:01; assay: IEDB peptide-MHC binding, purified MHC/competitive/radioactivity; ≥ and ≤ were set here for values at or beyond the usual limits of such assays; settings: source organism: Trypanosoma cruzi
[32] = target: HLA-B*15:01; assay: IEDB peptide-MHC binding, purified MHC/competitive/fluorescence; ≥ and ≤ were set here for values at or beyond the usual limits of such assays
[33] = target: HLA-A*03:01; assay: as above; settings: source organism: Variola virus
[34] = target: HLA-B*07:02; assay: IEDB peptide-MHC binding, purified MHC/competitive/fluorescence; filed as Kd, often an IC50 or EC50 that approximates it; ≥ and ≤ were set here for values at or beyond the usual limits of such assays; settings: source organism: Yersinia mollaretii ATCC 43969
[35] = target: HLA-B*51:01; assay: as above; settings: source organism: Yersinia mollaretii ATCC 43969
[36] = target: HLA-B*08:01; assay: as above; settings: source organism: Yersinia mollaretii ATCC 43969
[37] = source organism: Influenza A virus (A/swine/Korea/S190/2004(H9N2))
[38] = source organism: Influenza A virus (A/Puerto Rico/8/34/Mount Sinai(H1N1))
[39] = source organism: Influenza A virus H3N2
[40] = source organism: Influenza A virus (A/chicken/Hubei/wm/1997(H5N1))
[41] = source organism: Zaire ebolavirus
[42] = source organism: Vaccinia virus WR
[43] = source organism: Cryptosporidium parvum
[44] = source organism: Escherichia coli O157:H7
[45] = source organism: Influenza A virus (A/Hong Kong/485/1997(H5N1))
[46] = source organism: Influenza A virus (A/chicken/Vietnam/5/2003(H5N1))
[47] = source organism: Influenza A virus(A/swine/Henan/3/2004(H9N2))

ATTHSWIPK
Kd [1, 37]: ≥ 20 µM
Kd [2, 37]: ≥ 20 µM
Kd [3, 37]: ≥ 20 µM
Kd [4, 38]: 0.826 µM
Kd [5, 37]: ≥ 20 µM
Kd [6, 37]: ≥ 20 µM
Kd [7, 37]: ≥ 20 µM
Kd [8, 37]: ≥ 20 µM
Kd [9, 37]: ≥ 20 µM
Kd [10, 39]: ≥ 20 µM
Kd [11, 37]: ≥ 20 µM
Kd [12, 37]: ≥ 20 µM
Kd [13, 37]: ≥ 20 µM
Kd [14, 37]: ≥ 20 µM
Kd [15, 39]: ≥ 20 µM
Kd [16, 37]: ≥ 20 µM

EKPKFLPDL
Kd [1, 40]: ≥ 20 µM
Kd [2, 40]: ≥ 20 µM
Kd [3, 40]: ≥ 20 µM
Kd [17, 40]: ≥ 20 µM
Kd [4, 40]: ≥ 20 µM
Kd [5, 40]: ≥ 20 µM
Kd [6, 40]: ≥ 20 µM
Kd [8, 40]: ≥ 20 µM
Kd ([18]; source organism: Influenza A virus (A/Taiwan/2/2006(H1N1))): ≥ 20 µM
Kd [19]: ≥ 20 µM
Kd [20]: ≥ 20 µM
Kd [11, 40]: ≥ 20 µM
Kd [12, 40]: ≥ 20 µM
Kd [21, 40]: ≥ 20 µM
Kd [22]: ≥ 20 µM
Kd [14, 40]: ≥ 20 µM
Kd [15, 40]: ≥ 20 µM
Kd [16, 40]: ≥ 20 µM
Kd [23]: ≥ 20 µM

ETVEWALKF
Kd ([18]; source organism: Kurkino virus): ≤ 0.001 µM
Kd ([15]; source organism: Orthohantavirus dobravaense): 0.0032 µM

FCIKVLCPY
Kd ([18]; source organism: West Nile virus SPU116/89): 0.096 µM

FLDPATTTS
IC50 [24, 41]: 1.78 µM
IC50 [25, 41]: ≥ 145 µM

FTEQAFYTR
IC50 [26, 42]: 17.7 µM
IC50 [25, 42]: 26.3 µM

IINAHRIPK
Kd [1, 43]: ≥ 20 µM
Kd [2, 43]: ≥ 20 µM
Kd [3, 43]: ≥ 20 µM
Kd [17, 43]: 0.0267 µM
Kd [4, 43]: 0.0825 µM
Kd [6, 43]: ≥ 20 µM
Kd [7, 43]: ≥ 20 µM
Kd [11, 43]: ≥ 20 µM
Kd [12, 43]: ≥ 20 µM
Kd [21, 43]: 0.0316 µM
Kd [13, 43]: ≥ 20 µM
Kd [14, 43]: ≥ 20 µM
Kd ([15]; source organism: Cryptosporidium parvum Iowa II): ≥ 20 µM
Kd [16, 43]: ≥ 20 µM

LLGLWGTAAL
Kd [27]: 0.00721 µM
Kd [28]: 0.00193 µM
Kd [29]: 8.19 µM
Kd [30]: 1.26 µM
IC50 [31]: 0.499 µM

LLQLNETIY
IC50 [32, 41]: 3.16 µM
IC50 [24, 41]: ≥ 78.3 µM
IC50 [25, 41]: ≥ 88.9 µM

LSLTKLFSY
IC50 ([32]; source organism: Variola virus): 15.5 µM
IC50 ([26]; source organism: Variola virus): 4.13 µM
IC50 [33]: 18.9 µM
IC50 ([24]; source organism: Variola virus): ≥ 103 µM
IC50 ([25]; source organism: Variola virus): 3.71 µM

MPMYAIHKV
Kd [34]: 0.0267 µM
Kd [35]: 1.14 µM
Kd [36]: 1.87 µM

PILPKLFIL
Kd [1, 44]: ≥ 20 µM
Kd [2, 44]: ≥ 20 µM
Kd [3, 44]: ≥ 20 µM
Kd [4, 44]: ≥ 20 µM
Kd [5, 44]: 5.7 µM
Kd [6, 44]: ≥ 20 µM
Kd [7, 44]: ≥ 20 µM
Kd [8, 44]: ≥ 20 µM
Kd [11, 44]: ≥ 20 µM
Kd [13, 44]: ≥ 20 µM
Kd [14, 44]: ≥ 20 µM
Kd [16, 44]: ≥ 20 µM

QMRDVLGTF
Kd [1, 38]: 0.066 µM
Kd [2, 45]: ≥ 20 µM
Kd [3, 38]: 0.381 µM
Kd [17, 45]: ≥ 20 µM
Kd [4, 45]: ≥ 20 µM
Kd [5, 45]: ≥ 20 µM
Kd [7, 45]: ≥ 20 µM
Kd [11, 45]: ≥ 20 µM
Kd [21, 45]: ≥ 20 µM
Kd [13, 45]: ≥ 20 µM
Kd [14, 45]: ≥ 20 µM
Kd ([15]; source organism: Influenza A virus (A/Hong Kong/507/97(H5N1))): 0.135 µM
Kd [16, 45]: ≥ 20 µM

RVDKLTQGR
Kd [1, 46]: ≥ 20 µM
Kd [2, 46]: ≥ 20 µM
Kd [3, 46]: ≥ 20 µM
Kd [4, 38]: ≥ 10 µM
Kd [5, 46]: ≥ 20 µM
Kd [6, 46]: ≥ 20 µM
Kd [7, 46]: ≥ 20 µM
Kd [8, 46]: ≥ 20 µM
Kd [9, 46]: ≥ 20 µM
Kd [10, 47]: ≥ 20 µM
Kd [11, 46]: ≥ 20 µM
Kd [12, 46]: ≥ 20 µM
Kd [13, 46]: ≥ 20 µM
Kd [14, 46]: ≥ 20 µM
Kd [15, 47]: ≥ 20 µM
Kd [16, 46]: ≥ 20 µM
